Results taken from patent CN114907480A (JIANGSU XINTRUM PHARMACEUTICALS CO LTD, dated 2022).
Blank lines part the entries; values can stand above or below the binder they belong to.

How the values were obtained:
[1] = target: T1, 重组人CD73蛋白 (自主表达的人源CD73蛋白, C端6×His标签) (human, UniProt P21589 27-549, limits assumed); assay: SPR, Biacore T200, antibody captured by anti-mouse Fc IgG on CM5 chip, human CD73 as analyte, 25℃, 1:1 model
T1 sequence: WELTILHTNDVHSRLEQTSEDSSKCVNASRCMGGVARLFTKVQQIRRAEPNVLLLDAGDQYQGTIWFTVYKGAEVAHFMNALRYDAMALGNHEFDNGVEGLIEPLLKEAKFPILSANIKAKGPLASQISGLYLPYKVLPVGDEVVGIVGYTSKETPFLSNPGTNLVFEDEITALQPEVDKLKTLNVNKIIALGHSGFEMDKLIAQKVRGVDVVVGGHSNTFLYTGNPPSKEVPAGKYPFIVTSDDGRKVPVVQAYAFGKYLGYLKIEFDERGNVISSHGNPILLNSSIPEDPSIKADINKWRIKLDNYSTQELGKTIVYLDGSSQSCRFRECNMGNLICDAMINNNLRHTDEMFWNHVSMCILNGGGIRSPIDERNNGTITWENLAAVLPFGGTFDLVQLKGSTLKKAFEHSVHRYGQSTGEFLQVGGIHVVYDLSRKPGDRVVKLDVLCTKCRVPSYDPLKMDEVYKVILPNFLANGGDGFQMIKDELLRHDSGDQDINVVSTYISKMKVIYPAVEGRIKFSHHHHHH

[2] = target: T1, 重组人CD73蛋白 (自主表达的人源CD73蛋白, C端6×His标签); assay: SPR, Biacore T200, antibody captured on CM5 chip, human CD73 as analyte, 25℃, 1:1 model

Kd [1]: 0.416 nM
koff [1]: 3.21e-05 s⁻¹
kon [1]: 77200 M⁻¹ s⁻¹
B1: 抗人CD73单克隆抗体7-C10-Ba-C2 (antibody, V domains shown)
VH: EVQLQQSGPELVKPGASMKISCKASGYSFTGYTMNWVKQSHGKNLEWIGFITPYNGDTIYNQKFKGKATVTVDKSSSTAYMDLLSLTSEDSAVYYCAREGYDGGYFDYWGQGTTLTVSS
VL: DIQMTQSPASLSASVGETVTITCRASENIYSYLAWYQQKQGKSPQLLVYNTQTLAEGVPSRFSGSGSGTQFSLKINSLQPEDFGSYYCQHHYGTPMYPFGGGTKLEIK
notes: Mouse (BALB/c) hybridoma antibody, IgG type, purified from ascites; also called 本发明抗体7-C10-Ba-C2; 本发明的抗CD73单抗

Kd [2]: 0.141 nM
koff [2]: 3.91e-05 s⁻¹
kon [2]: 278000 M⁻¹ s⁻¹
B2: MEDI-9447 (MedImmune公司的抗CD73单克隆抗体) (antibody, V domains shown)
VH: EVQLLESGGGLVQPGGSLRLSCAASGFTFSSYAYSWVRQAPGKGLEWVSAISGSGGRTYYADSVKGRFTISRDNSKNTLYLQMNSLRAEDTAVYYCARLGYGRVDEWGRGTLVTVSS
VL: QSVLTQPPSASGTPGQRVTISCSGSLSNIGRNPVNWYQQLPGTAPKLLIYLDNLRLSGVPDRFSGSKSGTSASLAISGLQSEDEADYYCATWDDSHPGWTFGGGTKLTVL
